Reference: paper PMC10796322, “Molecular switching in transcription through splicing and proline-isomerization regulates stress responses in plants” (Nature Communications, 2024)
No end group written: not given here.

T1: Med25-ACID_(532-680), activator interaction domain (ACID) of mediator complex subunit 25 (Arabidopsis thaliana, UniProt Q7XYY2 532-680)
T1 chain: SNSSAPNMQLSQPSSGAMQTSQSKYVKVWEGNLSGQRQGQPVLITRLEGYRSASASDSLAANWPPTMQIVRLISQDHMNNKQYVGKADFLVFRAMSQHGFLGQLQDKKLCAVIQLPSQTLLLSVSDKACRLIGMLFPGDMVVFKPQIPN

T2: Med25-ACID_(532-680), activator interaction domain (ACID) of mediator complex subunit 25 (Arabidopsis thaliana, UniProt Q7XYY2 532-680)
T2 construct: 15N- or 13C,15N-labelled in the NMR titrations; unlabelled in ITC, CEST and stopped-flow; also called AtMed25-ACID; ACID domain; source: E. coli BL21 DE3, purified (glutathione Sepharose, TEV cleavage, cation exchange, SEC); not shown: GST, N-terminal, cleaved
T2 sequence (looked up): T1 chain

B1: DREB2A_(255-276) (RIM) (domain or fragment)
chain: SSDMFDVDELLRDLNGDDVFAG
B2: FITC-DREB2A_(234-276) (domain or fragment, Arabidopsis thaliana, UniProt O82132 234-276, looked up)
chain: QDSLSVADYGWPNDVDQSHLDSSDMFDVDELLRDLNGDDVFAG
modifications: also: single FITC label, position not given here
notes: also called FITC-labeled ABS-RIM; single-labeled FITC-DREB2A; source: E. coli BL21 DE3, purified; labeled with a FITC labeling kit (Pierce) and purified by reversed phase chromatography; not shown: GST, N-terminal, cleaved
B3: FITC-DREB2A_(234-276) (domain or fragment)
chain: B2 chain
modifications: also: FITC label, position not given here

Molecular target: T1, Med25-ACID_(532-680), activator …
Test: NMR; first site (Kd,1), competitive two binding sites model
Conditions: not given

Kd [µM]	Molecule
280	B1

Molecular target: RCD1 RST (Arabidopsis thaliana) (UniProt Q8RY59)
Test: not given
Conditions: cited from earlier work

Molecule	Kd [µM]
DREB2A (from UniProt O82132)	0.012

Molecular target: Med25-ACID_(532-680), activator interaction domain (ACID) of mediator complex subunit 25 (Arabidopsis thaliana) (UniProt Q7XYY2)
Test: NMR titration; 15N-HSQC; 100-150 µM 15N-labeled Med25-ACID(532-680) at constant concentration with increasing DREB2A ligand; 20 mM Na2HPO4/NaH2PO4 pH 6.5, 100 mM NaCl; chemical shift perturbations
Conditions: not given

KD (binding surface site) [µM]	KD (binding surface site, by NMR) [µM]	KD (groove site) [µM]	Molecule
3000 to 6000	5000	200 to 400	DREB2A_(255-276) (RIM) (from UniProt O82132 255-276) (domain or fragment)

Molecular target: T2, Med25-ACID_(532-680), activator …
Test: stopped-flow fluorescence; FITC-DREB2A (50 nM 234-276 or 250 nM 234-256) mixed with increasing Med25-ACID(532-680), pseudo-first-order; dissociation by competitive displacement with unlabeled DREB2A; 50 mM HEPES pH 7.4, 100 mM NaCl, 1 mM DTT; Fig. 7 legend gives kinetic rate constants at 10 °C
Conditions: both partners purified

binding result	Molecule
binds	B2

Molecular target: T1, Med25-ACID_(532-680), activator …
Test: stopped-flow, trans proline isomer, 10 °C
Conditions: not given

koff [s⁻¹]	Molecule
24	B3

Molecular target: T3, Med25-ACID (Arabidopsis thaliana, UniProt Q7XYY2)
T3 construct: Med25-ACID532-680 (AT1G25540), expressed in E. coli with N-terminal GST tag removed by TEV protease
Test: not given
Conditions: SD
Protocol: All protein fragments were produced with an N-terminal Glutathione-S-transferase (GST) tag which was removed using Tobacco Etch Virus (TEV) protease and expressed from E.coli BL21 DE3 cells. DREB2A (AT5G05410) variants were expressed at 37 °C for three hours. The DREB2A splice variant (AT5G05410.2) was based on GenBank ID CD530293[21]. Due to stability and aggregation considerations, Med25-ACID (AT1G25540) was expressed with additional N-terminal residues. Expression of Med25-ACID532-680 was induced at high OD (0.8-1.0) and cultured overnight at 18 °C. Cells were resuspended in 20 mM Tris-HCl pH 8.0, 100 mM NaCl lysis buffer and sonicated. The lysate was incubated with glutathione Sepharose for one hour and washed using the lysis buffer. Aliquots of 5 mL resin were resuspended in 20 mL of lysis buffer with 5 mM dithiothreitol (DTT) and 1 mM EDTA and the protein was cleaved overnight at 4 °C using TEV protease. For DREB2A, cleaved protein was freeze-dried and buffer-changed to experimental buffer using size exclusion chromatography. Med25-ACID was further purified using cation exchange (Source 15 S) at pH 8.5 and the buffer was changed using size exclusion chromatography (Superdex S75 10/300 GL). Isotope-labeled proteins were produced by growing the initial culture in lysogenic broth and transferring to half volume M9 minimal media 30 min before induction.
ITC was performed on either a MicroCal ITC200 or a Malvern Pananalytical PEAQ-ITC. All ITC experiments were performed using a 50 mM HEPES pH 7.4, 100 mM NaCl and 0.5 mM tris(2-carboxyethyl)phosphine (TCEP) buffer. All experiments were performed using a ~ 1:10 cell to syringe protein concentration ratio. For high-affinity DREB2A fragments, the cell concentration was around 15 µM, while lower-affinity interaction experiments used higher concentrations. Samples were degassed by centrifuging at 20,000 x g for 20 minutes at experimental temperature. For three DREB2A fragments, experiments were performed over a range of temperatures to determine the ΔCp. Reported thermodynamic parameters are given at 25 °C. Data were analyzed using Origin and inhouse scripts using the one-set-of-sites model as documented by MicroCal and Origin. Dilution heats were fitted using an offset parameter. Most experiments were performed using a 0.5 µl initial injection, which was discarded in the analysis, followed by 18 injections of 2.0 µl.

Molecule	Kd [µM]
DREB2A195-276 E263P	0.58 ± 0.04
DREB2A195-276 F259A	0.55 ± 0.05
DREB2A195-276 W244A	1.9 ± 0.2
DREB2A195-276 V239A	2 ± 0.2
DREB2A195-276 F274A	0.66 ± 0.09
DREB2A195-276 D241A	2 ± 0.7
DREB2A195-276 L237A	2.4 ± 0.3
DREB2A195-335,Δ244-276 (splice variant fragment) [195–335 ∆244–276]	5.4 ± 0.6
DREB2A151-335 [151–335]	0.54 ± 0.04

Molecular target: T1, Med25-ACID_(532-680), activator …
Test: stopped-flow, cis proline isomer, 10 °C
Conditions: not given

koff [s⁻¹]	Molecule
6	B3

Molecular target: T1, Med25-ACID_(532-680), activator …
Test: NMR; second site (Kd,2), competitive two binding sites model
Conditions: not given

Kd [µM]	Molecule
4700	B1
